Legend:
Ash2LN K225E = Ash2LN K225E (human, UniProt Q9UBL3 95-280, K225E); test: EMSA
Ash2LN K229E = Ash2LN K229E (human, UniProt Q9UBL3 95-280, K229E); test: EMSA
Ash2LN K229E, sequence (Q9UBL3 95-280 K229E): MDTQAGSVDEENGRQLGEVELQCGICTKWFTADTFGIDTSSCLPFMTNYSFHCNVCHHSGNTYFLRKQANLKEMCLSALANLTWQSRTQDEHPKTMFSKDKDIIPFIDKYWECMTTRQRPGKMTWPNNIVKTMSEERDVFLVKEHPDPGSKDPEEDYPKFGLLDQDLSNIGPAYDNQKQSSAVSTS

Ash2LN K225E, sequence (Q9UBL3 95-280 K225E): as the sequence (Q9UBL3 95-280 K229E) above, with K131E, E135K counted along it

B1: HS2 (dsDNA)
DNA 1: GCAATGCTGAGTCATGATGAGTCATGCTGAGGCTTAGGGTGTGTGC
DNA 2: GCACACACCCTAAGCCTCAGCATGACTCATCATGACTCAGCATTGC
binding result (Ash2LN K225E): no binding | binding result (Ash2LN K229E): no binding

Source: publication PMC3983046
